The test addresses Bacillus pseudofirmus Mrp antiporter complex (hetero-heptamer MrpA-MrpG, one protomer) (Bacillus pseudofirmus) (UniProt Q9RGZ5). Nature of the test: cryo-EM structure; purified Mrp dimer fractions in 20 mM Tris-HCl pH 8.0, 150 mM NaCl, 0.05% LMNG, 1-2 mg/ml; dimer map 2.96 Å, symmetry-expanded protomer map 2.2 Å.

A word on the stoichiometry N: it is a count of units in the complex or per binding partner. In turn, “Bacillus pseudofirmus Mrp antiporter complex (hetero-heptamer MrpA-MrpG, one protomer) (from UniProt Q9RGZ5 1-805; Q9RGZ4 1-144; Q9RGZ3 1-112; Q9RGZ2 1-493; Q9RGZ1 1-158; Q9RGZ0 1-91; Q9RGY9 1-119)” returned a stoichiometry N of 2.

Values taken from article PMC9568556.
